Laboratory results taken from the nanobody polyreactivity screen of Harvey et al. (2022).

Assay: yeast display, Sf9 membrane polyspecificity reagent, FACS + sequencing; frameworks hold sequencing errors
Summary of the method: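 In a synthetic yeast display library (Saccharomyces cerevisiae BJ5465), nanobody expression was induced with galactose for 36–48 hours. FACS gates were set low and high (top ~1%) using anti-HA fluorescence for expression and streptavidin fluorescence for binding of the Sf9 membrane reagent. Each polyreactivity label is drawn from the gate of origin.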

Sequence | polyreactivity (PSR sort gate)
QVQLVESGGGYVQAGGSLRLSCAASGSTFKGYAMGLYRQAPGKEMELVAAITWIGGSTTYADSVKGRFTISCDNAKNTVYLQMNSLKPEDTAVYYCAADNFWYFLSATEDYWGQGTQVTVSS | low polyreactivity
QVQLVESGGGLVQAGGSLRLSCAASGSIFTPYAMGWYRQAPGKERELVAAISRSGGSTFYADSVKGRFTISRDNAKNSFYLQMNSLKPEDTAVYYFAVVASRSHTETPEYDYWGQGTQVTVSS | low polyreactivity
QVQLVESGGGLVQAGGRLRLSCAASGFIFTPYTMGWYRQSPGTERELVAAITDGSSTYYADSVNGRFTISRDNAKNTVNLQMNSLKPEDTAVYYCNADGKQPYISWLYDYWGQGTQVTVSS | low polyreactivity
QVQLVESGGGLVQAGGSLRLSCAASGLIFWLNAMGWYRQAPGKDCELVAAISRGGSTNYADSVKGRFTISRDNAKNTVYFQMNSLKPEDSAVYYCAAGSRRAAWYDYSYPYGYWGQGTQVTVSS | high polyreactivity
QVQLVESGGRLVQAGGSLRLSCAASGRIFRYNAMGWYRQAPGKEREFVARISVITGRTYYADSVKGRFTISRDIAKNTVYLQMNSLKPEDTAVYYCAADAGYNYRYLLRGDYWGQGTQVTVSS | high polyreactivity
QVQLVESGGGLVQAGGSLRLSCAASGITLGRYAMGWYRQAPGKERALVAAIPRSGGSTYYADSVKGRFTISRDNAKNTVYLQMNSLKPEDTAVYYCNRRVYPTSDYDYWGQGTQVTVSS | high polyreactivity
QVQLVESGGGLVQAGGSLRLSSAASGRIFRVNAMGLYTQAPGKERELVAAISRRGGSTYYADSVKGRFTISRDNAKNTVYLQMNTLKPEDTAVYYCAKKSYSYGYNSYYYWGQGTQVTVSS | high polyreactivity
QVQLQESGGGLVRAGGSLRLSCAASGYISTSIAMGWYRQAPGKERELVASFGRGAITNYADSVKGFTISRDNGKNSVYLQMNSLKPEDTAVYYCAVYHGDRGYYSYWGQGTQVNVSS | low polyreactivity
QDQLVESAGGLVQAGGSLRLSCAASGLTFWDYAMGWSRQAPGKERELVAGINTRGTSTYYADSVKGRFTISRDNAKNNVYLQMNSLKPEDTAVYYCAARVRSELIKRYYWGQGSQVTVSS | high polyreactivity
QVQLVESGGGLVHAGGSLRLSCAASRFIFYYYALGWYRQAPGKERELVAVITSGGSTNYADSVKGRFTISRDNAKNTVYLQMNSLKPEDTAVYYCAARSRRRDDSWGQGTQVTVSS | high polyreactivity
QVQLVESGGGLDQAGGSLRLSCAASGSIFAGYAMGWYRQAHGKERELVAAINWTGDSTYYADSVKGRFTISRDNAKNTVYLQMNRLKPEDTAVYYCAAIRRQKGLWDYYYWGQGTQVTVSS | low polyreactivity
QVQLVESGGGLVQAGGSLRLSCAASGYNFKRYTMGWYRQAPGKERELVAAISGGDSTNYADSVKGRFTISRDNAKNTVYLHMNSLKPEDTAVYYCAAGGLTLWHGYILGYWGQGTQVTVSS | low polyreactivity
QVQLVESGGGLVQAGGSLRLSCSASGFTFYRYAMGWYRQAPGKERELVAAITSGGSTYYADSVKGRFTISRDNAKNTVYLQMNSLKPEDTAVYYCAAQKARVFRGAWTRYEYWGQGTQVTVSS | high polyreactivity
QVQLVESGGGLVQAGGSLRLSCADSGSTFYYYTKGWYRQAPGKERELVAAISFSGGSTYYADSVKGRFTISLYNAKNTVYLQMNSLKPEDTAVYDCAAAQRVYKSWGYYWGQGSQVTVSS | low polyreactivity
QVQLVESGGGLVQAGGSLRLSCAASGRIFGVNAMGWYRQAPGKERELVAAIFSGGSTYYADSVKGRFTISRDTAKNTVYLQMNSLKPEDTAVYYCAARFARYDWSMYYWGQGTQVTVSS | low polyreactivity
QVQLVESGGGLVQAGGSLRLSCAATGRIFGSNAMGWYRQAPGKEREVVAAITRGGSTNYADSVKGRFTISRDNAKNTVYLQMNSLKPEDTAVYYCAVRWYRKYNFWGQGTQVTVSS | high polyreactivity
QVQLVESGGGLVQAGGSLRLSCAASGRIFPLYAMGWYRPAPGKERELVADISVTGTSTYYADSVKGRFTISRDNAKNTVYLQMNSLKPEDTAVYYCAADLWAYGPLWRWSRADYDYWGQGTQVTVSS | low polyreactivity
QVQLVESGGGIVQAGGSLRLSCAASGRILVSNTMGWYRQAPGKERELVAGIRRGGSTDYADSVKGRFTISRDNAKNTVYLQMNSLKPEDTAVYYCNARYSNGYTKLGYWGQGTQVTVSS | low polyreactivity
QVQLVESGGGLVQAGGSLRLSCAASGSTFYRYAMGWYRQAPGKERELVAAITRSDGITYYADSVKGRFTISRDNAKNTVYLQMNSLKPEDTAVYYCAKGYVGSFYDDFYYWGQGTQVTVSS | low polyreactivity
QVHLVESGGGLVQAGGSLRLSCAASGRTFYLYTMGWYRQAPGKEREFVAIISRSGASTRYADSVKGRFTISRDNAKNTVYLQMNSLKPEDTAVYYCAAYVGYPYDYWGQGTQVTVSS | high polyreactivity
QVQLVESGGGLVQAGGSLRLSCAASGRTFFFNAMGWYRQAPGKERELVARITWSGGSTYYADSVKGRFTISRDNAKNTVYLQMNSLKPEDTAVYYCNTRRFPYDGIEHDYWGQGTQVTVSS | low polyreactivity
QVQLVESGGGLVQAGGSLRLSCAASAGIIRTYAMGWYRQAPGKEMELVAAITFSAGSTFYADSVKGRFTISRDNAKNTVYLQMNSLKPEDTAVYYCNKDGGGDSYWYDYWGQGTQVTVSS | low polyreactivity

Sequence | polyreactivity (PSR sort gate)
QVQLVESGGGLVQAGGSLRLSCAASGSIFFYYAMGWYRQAPGKERELVAAITKIGVGTFYADSVKGRFTISRDNAKNTVYLQMNSLKPEDTAVYYCNARTAWEGYDYWGQGTQVTVSS | low polyreactivity
QFQLLESWGGLVQAGGSLLFSCAASGSTFGYYAMGWYRKAPGKERELVAAISKSGGTTSYADSVKGRFTISRDNAKNTVYLQMISLKPEDTAVYYCSARSFRRGGLRGYDSWGQGTQVTVSS | high polyreactivity
QVQLVESGGGLVQAGGSLRLSCAASGRISHYNAMGWYRQAPGKERELVAAISSRGGSTYYADSVKGRFTISRDIAKNTVYLQMNSLKPEDTAVYYCADTAGYWGQGTQVTVSS | high polyreactivity
QVQLVESGGGLVQAGGSLRLSCAASGSIFYGYAMGWYRQAPGKEREFVASINSGVGSTYYADSVKGRFTISRDNAKNTVYLQMNSLKPEDTAVYYCNKVHRSFTYNDGQTPAYDYWGQGTQVTVSS | low polyreactivity
QVQLVESGGGLVQAGGSLRLSCAASGSTFNRNTMGWYRQAPGKERELVASINRGGSTYYADSVKGRFTISRDNAKNTVYLQMNSLKPEDTAVYYCAKRVRKSYTGTQAPKKFGYWGQGSQVTVSS | low polyreactivity
QVQLVESGGGLVQAGGSLRLRCAASGSIFVYYAMGWYRQAPGKERELVAAITWRGDNTYYADSVKGRFTISRDNAKNSVYLQMNSLKPEDTAVYYCAADSYTSIFDYWGQGTQVTVSS | low polyreactivity
QVQLVESGGGLVQAGGSLRLSCAASGSIFTPNAMGWYRQAPGKERELVAAISSSSDRTYYADSVKGRFTISRDNAKNTVYLQMNSLKPEETAVYYCAAYAQKRYYWGQGTQVTVSS | high polyreactivity
QVQLVESGGGLVQAGGSLRLSCAASGIIFVENAMGWYRQAPGKERELVASGDSTYYADSVKGRFTISRDNAKNTVYLQMNSLKPEDTAVYYCAVDHYSARLLARYDYWGQGTQVTVSS | low polyreactivity
QVQLVESGGGLVQAGGSLRLSCAASGRIFGVNAMGWYRQAPGKERELVAAIFSGGSTYYADSVKGRFTISRDNAKNTVYLQMNSLKPEDTAGYYCAARFARYDWSMYYWGQGTQVTVSS | low polyreactivity
QVQLVESGGGLVQAGGSLRLSCAASGSIFRQNAMGWYRQAPGKERELVAAISSSGGSTYYADSVKGRFTISRDNAKNTVYLQMNSLKPEDTAVYYCAARLRRTQTYSSGRPGDYWGQGTQVTVSS | high polyreactivity
QVELVESGGGLVQAGGSLRLSCAASGRTFTPYAMGWYRQAPGKEREFVAAISIVGRTKYADSVKGRFTISRDNAKNTVYLQMNSLKPEDTAVYYCNAQDSRDRKFYWGYTRGHWGQGTQVTVSS | low polyreactivity
QVQIVESGGGLVQAGGSLRLSCAASGRTFNRNAMGWYRQAPGKERELVAAISRGGGGTFYADSVKGRFTISRDNAKNTVYLQMNSLKPEDTAVYYCAKTLRGWHTIITDYDYWGQGTQVTVSS | low polyreactivity
QVQLVESGGGLVQAGGSLRLSCAASGSTLQDNAMGWYRQAPGKDRELVAAITTGSTTYADSVKGRFTISRDNAKNTVYIQMNSLKPEDTAVYYCAADSEEYDGYTWWVFKFDYWGQGTQVTVSS | low polyreactivity
QVQLVESGGGLVQAGGSLRLSCAASGRTFAFYTMGWYIQAPGKERELVAAITRTGSTSYADSVKGRFTISRDNAKNTVYLQMNSLKPEDTAVYFCASVGYPYTLWHQMDYWGQGTQVTVSS | low polyreactivity
QVQLVESGGGLDQAGGSLRLSCAASGSNFSGWYTMGWYRQAPGKERELVASISISTTDTYYADSVKGRFTISRDNAKKTVYVQMNSLKPEDTAVYYCAAYGWDHVIVEYDYWGQGTQVTVSS | low polyreactivity
QVHHVESGGGLVQAGGCLRLSCAASGFIVRENAMGWYRQAPGKERELVAAISKSGGRTYYADSVKGRFTISRDNAKNTVYLQMNSLKPEDTAVFYCAAYPSYTIHPAGDYWGQGTQVTVSS | high polyreactivity
QVQLVESGGGLVQAGGSLRLSCAASGSTFRLYAMGWYRQAPGKEREFVAAISFRGGSTYYADSVKGRFTISRDNAKNTVYLQMNSLKPEDTAVYYCAADYWTSADPRNIIKYDYWGQGTQVTVSS | high polyreactivity
QVQLVESGGGLVQAGGSLRLSCAASGSIFRYYAMGWYRQAPGKERELVAAISSSGGSTYYADSVKGRFTISRDNAKNTVYLQMNSLKPEDTAVYYCARDWPSYYARQYDYWGQGTQVTVSS | high polyreactivity
QVQLVESGGGLVQAGGSLRLIFAASGRTFFSYVMGWYIQAPGKERELVAAITWRGGSTYYADSVKGRFTISRDNAKNTVYLQMNSLKPEDTAVYYCAAPSHGSTSDRYYKFYYWGQGTQVTVSS | high polyreactivity
QVQLVESGGGLVQAGGSLRLSCAASGSIFLLNAMGWYRQAPGKERELVAVISSGTGSTYYADSVKGRFTISRDTAKNTVYLQMNSLKPEDTAVYYCAAERDAVLFFVGPYYITLDYDYWGQGTQVTVSS | low polyreactivity
QVQVVESGGGLVQAGGSLRLSCAASGSTFQYYAMGWYRQAPGKEREFFAAITWSGGRTYYADSVKGRFTISRDNAKNTVYLQMKSLKPEDTAVYYCAADIDGVWIPYEYDYWGQGTQGTVSS | low polyreactivity
